Residue numbers refer to the chain shown, from its start.
T1: recombinant human Nectin4 antigen (human, UniProt Q96NY8 32-349)
T1 construct: construct not described
T1 sequence (looked up): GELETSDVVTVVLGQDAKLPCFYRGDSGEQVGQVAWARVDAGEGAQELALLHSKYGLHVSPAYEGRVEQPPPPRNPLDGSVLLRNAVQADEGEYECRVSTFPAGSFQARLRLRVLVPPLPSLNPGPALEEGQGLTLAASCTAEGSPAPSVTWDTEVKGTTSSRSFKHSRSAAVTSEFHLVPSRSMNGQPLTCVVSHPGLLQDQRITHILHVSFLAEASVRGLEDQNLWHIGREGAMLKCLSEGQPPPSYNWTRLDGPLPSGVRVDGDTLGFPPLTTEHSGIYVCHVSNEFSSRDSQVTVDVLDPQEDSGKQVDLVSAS

T2: cynoNectin4 antigen (cynomolgus (cyno), UniProt A0A2K5WES1 32-349)
T2 construct: construct not described; also called cynomolgus (cyno) Nectin-4
T2 sequence: T1 sequence (looked up) with V39A, I230V

T3: RatNectin4-His (rat, UniProt D3ZET1 31-348)
T3 construct: Immobilized on the SPR chip; not shown: His tag
T3 sequence: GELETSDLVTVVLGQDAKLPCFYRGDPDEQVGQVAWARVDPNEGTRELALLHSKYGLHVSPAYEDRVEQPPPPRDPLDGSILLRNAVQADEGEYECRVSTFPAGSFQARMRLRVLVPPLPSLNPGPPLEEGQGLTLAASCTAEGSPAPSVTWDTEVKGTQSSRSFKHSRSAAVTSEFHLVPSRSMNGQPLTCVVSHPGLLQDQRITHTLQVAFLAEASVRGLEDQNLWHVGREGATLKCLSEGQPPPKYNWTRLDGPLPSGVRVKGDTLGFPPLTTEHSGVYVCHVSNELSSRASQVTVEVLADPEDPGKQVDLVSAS

B1: BAP-143-wildtype (antibody, V domains shown)
VH: EVQLVESGGGLVQPGGSLRLSCAASGFTFSSYNMNWVRQAPGKGLEWVSYISSSSSTIYYADSVKGRFTISRDNAKNSLSLQMNSLRDEDTAVYYCARAYYYGMDVWGQGTTVTVSS
VL: DIQMTQSPSSVSASVGDRVTITCRASQGISGWLAWYQQKPGKAPKFLIYAASTLQSGVPSRFSGSGSGTDFTLTISSLQPEDFATYYCQQANSFPPTFGGGTKVEIK
notes: 150 kDa used in SPR; also called BAP143-00-00; benchmark (BM)
B2: BAP-143-00-06 (antibody, V domains shown)
VH: B1 VH with M104D
VL: B1 VL
notes: Used as a conjugate with a linker payload (CAB ADC)
B3: BAP-143-00-04 (antibody, V domains shown)
VH: B1 VH with M34D
VL: B1 VL
notes: as for B2
B4: BAP-143-00-05 (antibody, V domains shown)
VH: B1 VH with R98E
VL: B1 VL
notes: as for B2
B5: BAP-143-00-03 (antibody, V domains shown)
VH: B1 VH
VL: B1 VL with P96D
notes: as for B2
B6: BAP-143-06-33-03 (antibody, V domains shown)
VH: QVQLVQSGAEVKKPGASVKVSCKASGFTFSSYNMNWVRQARGQRLEWIGYISSSSSTIYYADSVKGRFTISRDNSKNTLYLQMNSLRAEDTAVYYCARAYYYGMDKWGQGTLVTVSS
VL: B1 VL with F94E
notes: as for B2
B7: BAP-143-06-24-16 (antibody, V domains shown)
VH: EVQLVQSGAEVKKPGATVKISCKVSGFTFSSYNMNWIRQSPSRGLEWLGYISSSSSTIYYADSVKGRFTISRDNSKNTLYLQMNSLRAEDTAVYYCARAYYYGDDVWGQGTLVTVSS
VL: B1 VL with R24H
notes: as for B2
B8: BAP-143-07-03-12 (antibody, V domains shown)
VH: B1 VH with V106K
VL: B1 VL with L33E
notes: as for B2
B9: BAP-143-06-33-16 (antibody, V domains shown)
VH: B7 VH
VL: B1 VL with L33E
notes: as for B2
B10: BAP-143-00-01 (antibody, V domains shown)
VH: B1 VH
VL: B1 VL with L33E
notes: as for B2

Each binder was assayed against T1, recombinant human Nectin4 antigen (assay: ELISA, coated antigen, PSB pH 7.4).
Description: (§1) 1) Coat ELISA plates with 100 μL of 1 μg/mL recombinant human Nectin4 antigen or cynoNectin4 antigen in carbonate-bicarbonate coating buffer. […] 2) Cover plates with sealing film and incubate overnight at 4° C. [0444] 3) Decant plates and tap out residual liquid on a stack of paper towels. [0445] 4) Wash wells twice by dispensing 200 μL of pH 6.0 or pH 7.4 ELISA incubation buffer to the wells and completely aspirate the contents. [0446] 5) Add 200 μL of pH 6.0 or pH 7.4 ELISA incubation buffer to the wells. Cover with sealing film and place the plate onto a plate shaker set to 50 rpm for 60 minutes at room temperature. [0447] 6) Decant plates and tap out residual liquid on a stack of paper towels. […] 7) Serially dilute test articles in 3-fold dilutions starting at 3000 ng/mL in pH 6.0 or pH 7.4 ELISA incubation buffer. […] 8) Add 100 μL/well of diluted test articles to the plates [0450] 9) Cover with sealing film and place the plates onto a plate shaker set to 50 rpm for 60 minutes at room temperature. [0451] 10) Decant plates and tap out residual liquid on a stack of paper towels. [0452] 11) Wash wells three times by dispensing 200 μL of pH 6.0 or pH 7.4 ELISA wash buffer to the wells and completely aspirate the contents. […] 12) Dilute the HRP secondary antibody at 1:2500 in pH 6.0 or pH 7.4 ELISA incubation buffer. [0454] […] 14) Cover with sealing film and place the plates onto a plate shaker set to 50 rpm for 60 minutes at room temperature. […] 15) Decant plates and tap out residual liquid on a stack of paper towels. […] 16) Wash wells three times by dispensing 200 μL of pH 6.0 or pH 7.4 ELISA wash buffer to the wells and completely aspirate the contents. [0458] 17) Dispense 50 μL per well of the TMB substrate solution into all wells of the plates.
B1 was tested, and the EC50 was 0.0202 µg/mL.
B2 was tested, and the EC50 was 0.0698 µg/mL.
B3 was tested, and the EC50 was 0.061 µg/mL.
Binder B4 has an EC50 of 0.141 µg/mL.
With B5 the EC50 was 0.245 µg/mL.

Each binder was assayed against T2, cynoNectin4 antigen (assay: ELISA, coated antigen, PSB pH 7.4).
Description: as §1
B1 showed an EC50 of 0.0128 µg/mL.
B6 gave an EC50 of 0.0723 µg/mL.
With B7 the EC50 was 0.0282 µg/mL.
With B8 the EC50 was 0.086 µg/mL.

Each binder was assayed against T3, RatNectin4-His (assay: SPR, RatNectin4-His immobilized, pH 6.0).
Description: (§2) All injections were done at a flow rate of 25 μL/min at 25° C. The sensor surface was activated with 1-ethyl-3-(3-dimethylaminopropyl)-carbodiimide (EDC) and N-hydroxysuccinimide (NHS) (200 mM/50 mM) for 480 seconds. HuNectin4-His (2 μg/mL in 10 mM NaAc, pH4.5) was injected for 480s and the surface was inactivated by injecting 1M ethanolamine-HCl for 480s. CynoNectin4 was immobilized using the same conditions as described for huNectin4-His, except that the cynoNectin4 was diluted into 10 mM NaAc buffer having pH 5.0. The control surface was activated and deactivated using the same conditions, but without injecting protein. PBST buffer (PBS pH 7.4 with 0.05% TWEEN20™) was used as running buffer for the surface preparation. The running solution was switched to PBST with 30 mM sodium bicarbonate with the pH adjusted as indicated in the figures before the analyte injections. The instrument was equilibrated with the running solution for one hour before the first analyte injection.
(§3) The off-rate was measured for 360s. The chip surface was regenerated after each cycle of interaction analysis by injecting 6 μL of 10 mM glycine (pH 2.0). Flow cells 1 and 3 without immobilized protein were used as control surfaces for reference subtraction.
(§4) In addition, data with buffer only as analyte (0 nM analyte) was subtracted from each run. Double subtracted data was fitted with the provided analysis software Analyzer R2 (Sierra Sensors) using a 1:1 binding model. A molecular weight of 150 kDa was used to calculate the molar concentrations of the analytes. RatNectin4-His was immobilized in FC3 using the same conditions as described for cynoNectin4.
B1 showed a Kd of 0.175 nM.
In the case of B7, the Kd is reported as 0.104 nM, the koff is reported as 0.000635 s⁻¹ and the kon is reported as 6.1e+06 M⁻¹ s⁻¹.
B9 gave a Kd of 0.154 nM, a koff of 0.000394 s⁻¹ and a kon of 2.57e+06 M⁻¹ s⁻¹.
For B10, the Kd was 1.17 nM, the koff was 0.00159 s⁻¹ and the kon was 1.36e+06 M⁻¹ s⁻¹.
For B8, the Kd was 0.738 nM, the koff was 0.0012 s⁻¹ and the kon was 1.62e+06 M⁻¹ s⁻¹.

Each binder was assayed against T3, RatNectin4-His (assay: SPR, RatNectin4-His immobilized, pH 6.5).
Description: as §2, §3, §4
B1 was tested, and the Kd was 0.108 nM.
B7 showed a Kd of 0.0378 nM, a koff of 0.000128 s⁻¹ and a kon of 3.39e+06 M⁻¹ s⁻¹.
Work on B9 yielded a Kd of 0.101 nM, a koff of 0.000304 s⁻¹ and a kon of 3.01e+06 M⁻¹ s⁻¹.
With B10 the Kd was 1.36 nM, the koff was 0.000953 s⁻¹ and the kon was 700000 M⁻¹ s⁻¹.
For B8, the Kd was 1.1 nM, the koff was 0.000868 s⁻¹ and the kon was 787000 M⁻¹ s⁻¹.

Reference: patent US20230235054A1 (BIOATLA, published 2023)
